Experimental data from the supplement of paper PMC12067230.
± gives the uncertainty stated by the source.

B1: H-33-Y; numbered along this chain (parent)
chain: EASNCFAIRHFENKFAVETLICFNLFLNSQEKHY

Variants of: B1
Test: amyloid nucleation score relative to WT ADan (yeast Sup35 reporter selection) (log enrichment difference); higher = more amyloid nucleation
Outline: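 Substitution and stop-truncation variants of a peptide joined to the Sup35 nucleation domain were expressed in psi-minus, pin-minus S. cerevisiae for 24 h in SC-URA with 2% glucose and 100 μM copper sulfate, then selected without adenine for 7 d at 30 °C, with variants below 200 input reads dropped after Illumina sequencing. Each nucleation score is log output/input enrichment relative to the unmutated peptide, merged across the three biological replicates in DiMSum by error-weighted mean.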

Variant	amyloid nucleation score
EASNCFAIRHFENKFAVETLICFNLFLNSQEKYY	-0.228 ± 0.17
EASNCFAIRHFENKFAVETLICFNLFLNSQEKWY	-0.788 ± 0.17
EASNCFAIRHFENKFAVETLICFNLFLNSQEKHN	-0.386 ± 0.18
EASNCFAIRHFENKFAVETLICFNLFLNSQEKHM	0.0777 ± 0.15
EASNCFAIRHFENKFAVETLICFNLFLNSQEKHQ	0.196 ± 0.2
EASNCFAIRHFENKFAVETLICFNLFLNSQEKHD	0.321 ± 0.13
EASNCFAIRHFENKFAVETLICFNLFLNSQEKHR	0.398 ± 0.088
EASNCFAIRHFENKFAVETLICFNLFLNSQEKHS	0.193 ± 0.1
EASNCFAIRHFENKFAVETLICFNLFLNSQEKHL	-0.0163 ± 0.1
EASNCFAIRHFENKFAVETLICFNLFLNSQEKHP	-0.211 ± 0.18
EASNCFAIRHFENKFAVETLICFNLFLNSQEKHF	-0.228 ± 0.14
EASNCFAIRHFENKFAVETLICFNLFLNSQEKHG	0.194 ± 0.098
EASNCFAIRHFENKFAVETLICFNLFLNSQEKHT	-0.062 ± 0.14
EASNCFAIRHFENKFAVETLICFNLFLNSQEKHI	-0.222 ± 0.16
EASNCFAIRHFENKFAVETLICFNLFLNSQEKHV	0.031 ± 0.11
EASNCFAIRHFENKFAVETLICFNLFLNSQEKHC	0.316 ± 0.14
EASNCFAIRHFENKFAVETLICFNLFLNSQEKHE	0.297 ± 0.14
EASNCFAIRHFENKFAVETLICFNLFLNSQEKHH	0.0246 ± 0.18
EASNCFAIRHFENKFAVETLICFNLFLNSQEKHA	-0.0498 ± 0.12
EASNCFAIRHFENKFAVETLICFNLFLNSQEKHK	0.234 ± 0.17
EASNCFAIRHFENKFAVETLICFNLFLNSQEKHW	-0.636 ± 0.14
